In patent publication US20250304640A1 (ORIKINE BIO SL, published 2025):

T1: IL10RA (UniProt Q13651 22-578, limits assumed)
T1 sequence (looked up): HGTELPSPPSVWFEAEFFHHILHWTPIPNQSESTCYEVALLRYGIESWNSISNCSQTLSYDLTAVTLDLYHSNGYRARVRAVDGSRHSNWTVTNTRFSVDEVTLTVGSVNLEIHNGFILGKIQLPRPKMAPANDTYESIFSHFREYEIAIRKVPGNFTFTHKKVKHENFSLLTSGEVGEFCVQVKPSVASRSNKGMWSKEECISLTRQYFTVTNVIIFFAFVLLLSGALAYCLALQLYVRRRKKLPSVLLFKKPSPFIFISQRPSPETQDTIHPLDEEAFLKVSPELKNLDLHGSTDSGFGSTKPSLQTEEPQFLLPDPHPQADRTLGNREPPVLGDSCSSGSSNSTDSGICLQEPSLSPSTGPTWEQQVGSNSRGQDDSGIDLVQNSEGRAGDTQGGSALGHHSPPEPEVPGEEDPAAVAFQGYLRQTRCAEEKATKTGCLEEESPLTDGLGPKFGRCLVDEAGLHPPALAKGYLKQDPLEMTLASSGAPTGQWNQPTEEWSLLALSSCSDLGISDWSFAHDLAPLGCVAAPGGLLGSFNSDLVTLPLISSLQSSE


Columns and labels:
IL10RA = target: T1, IL10RA; assay: cell-based or functional assay
CSF1 receptor (CSF1R) = CSF1 receptor (CSF1R) (UniProt P07333); assay: cell-based or functional assay
CSF1 receptor (CSF1R), sequence (P07333 20-972 limits assumed): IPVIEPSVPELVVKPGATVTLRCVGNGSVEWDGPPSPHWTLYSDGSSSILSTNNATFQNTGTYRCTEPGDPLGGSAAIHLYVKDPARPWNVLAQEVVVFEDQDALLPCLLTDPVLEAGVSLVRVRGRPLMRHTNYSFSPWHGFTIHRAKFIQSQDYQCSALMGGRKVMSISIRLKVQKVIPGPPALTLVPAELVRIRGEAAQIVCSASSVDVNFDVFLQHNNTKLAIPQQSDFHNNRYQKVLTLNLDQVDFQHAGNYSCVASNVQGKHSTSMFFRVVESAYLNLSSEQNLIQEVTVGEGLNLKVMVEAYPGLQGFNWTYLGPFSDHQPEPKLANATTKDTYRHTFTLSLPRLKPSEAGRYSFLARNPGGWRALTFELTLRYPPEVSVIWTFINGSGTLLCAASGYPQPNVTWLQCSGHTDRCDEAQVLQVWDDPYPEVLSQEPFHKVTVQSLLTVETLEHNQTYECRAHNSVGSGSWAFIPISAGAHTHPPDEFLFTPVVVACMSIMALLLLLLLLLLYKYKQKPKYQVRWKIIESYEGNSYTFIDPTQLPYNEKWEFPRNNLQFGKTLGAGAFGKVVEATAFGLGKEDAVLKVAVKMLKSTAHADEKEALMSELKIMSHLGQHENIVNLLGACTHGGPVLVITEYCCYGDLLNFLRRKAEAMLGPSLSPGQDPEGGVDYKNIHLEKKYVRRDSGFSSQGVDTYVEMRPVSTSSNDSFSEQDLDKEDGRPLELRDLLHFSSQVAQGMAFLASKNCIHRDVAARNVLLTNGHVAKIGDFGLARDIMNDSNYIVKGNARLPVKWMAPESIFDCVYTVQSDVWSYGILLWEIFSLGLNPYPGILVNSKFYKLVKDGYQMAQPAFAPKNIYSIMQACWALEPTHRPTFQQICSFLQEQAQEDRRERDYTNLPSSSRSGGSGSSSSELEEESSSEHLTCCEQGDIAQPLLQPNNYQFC

Row | Binder | EC-50, HEK-Blue IL-10 reporter cells (IL10RA) | EC50, HEK293 CSF1R/SRE reporter, biological replica 1 (CSF1 receptor (CSF1R)) | EC50, HEK293 CSF1R/SRE reporter, biological replica 2 (CSF1 receptor (CSF1R)) | other results
1 | ORK10-003-HiBit R24A (ligand) MTQSENSCTHFPGNLPNMLRDLRDAFSRVKTFFQMKDQLDNLLLKESLLEDFKGYLGCQALSEMIQFYLEEVMPQAENQDPDIKAHVNSLGENLKTLRLRLRRCHRFLPCENKSKAVEQVKNAFNKLQEKGIYKAMSEFDIFINYIEAYLYKTITPEFANMLADLRDAFSRVKTFFQMKDQLDNLLLKESLLEDFKGYLGCQALSEMIQFYLEEVMPQAENQDPDIKAHVNSLGENLKTLRLRLRRCHRFLPCENKSKAVEQVKNAFNKLQEKGIYKAMSEFDIFINYIEAYMTMGGVSGWRLFKKIS | 1.51e-10 |  |  | 
2 | ORK10-003-HiBit K34A (ligand) MTQSENSCTHFPGNLPNMLRDLRDAFSRVKTFFQMKDQLDNLLLKESLLEDFKGYLGCQALSEMIQFYLEEVMPQAENQDPDIKAHVNSLGENLKTLRLRLRRCHRFLPCENKSKAVEQVKNAFNKLQEKGIYKAMSEFDIFINYIEAYLYKTITPEFANMLRDLRDAFSRVATFFQMKDQLDNLLLKESLLEDFKGYLGCQALSEMIQFYLEEVMPQAENQDPDIKAHVNSLGENLKTLRLRLRRCHRFLPCENKSKAVEQVKNAFNKLQEKGIYKAMSEFDIFINYIEAYMTMGGVSGWRLFKKIS | 9.22e-10 |  |  | 
3 | ORK10-003-HiBit Q38A (ligand) MTQSENSCTHFPGNLPNMLRDLRDAFSRVKTFFQMKDQLDNLLLKESLLEDFKGYLGCQALSEMIQFYLEEVMPQAENQDPDIKAHVNSLGENLKTLRLRLRRCHRFLPCENKSKAVEQVKNAFNKLQEKGIYKAMSEFDIFINYIEAYLYKTITPEFANMLRDLRDAFSRVKTFFAMKDQLDNLLLKESLLEDFKGYLGCQALSEMIQFYLEEVMPQAENQDPDIKAHVNSLGENLKTLRLRLRRCHRFLPCENKSKAVEQVKNAFNKLQEKGIYKAMSEFDIFINYIEAYMTMGGVSGWRLFKKIS | 2.07e-10 |  |  | 
4 | ORK10-003-HiBit D44A (ligand) MTQSENSCTHFPGNLPNMLRDLRDAFSRVKTFFQMKDQLDNLLLKESLLEDFKGYLGCQALSEMIQFYLEEVMPQAENQDPDIKAHVNSLGENLKTLRLRLRRCHRFLPCENKSKAVEQVKNAFNKLQEKGIYKAMSEFDIFINYIEAYLYKTITPEFANMLRDLRDAFSRVKTFFQMKDQLANLLLKESLLEDFKGYLGCQALSEMIQFYLEEVMPQAENQDPDIKAHVNSLGENLKTLRLRLRRCHRFLPCENKSKAVEQVKNAFNKLQEKGIYKAMSEFDIFINYIEAYMTMGGVSGWRLFKKIS | 2.01e-09 |  |  | 
5 | ORK10-003-HiBit D44N (ligand) MTQSENSCTHFPGNLPNMLRDLRDAFSRVKTFFQMKDQLDNLLLKESLLEDFKGYLGCQALSEMIQFYLEEVMPQAENQDPDIKAHVNSLGENLKTLRLRLRRCHRFLPCENKSKAVEQVKNAFNKLQEKGIYKAMSEFDIFINYIEAYLYKTITPEFANMLRDLRDAFSRVKTFFQMKDQLNNLLLKESLLEDFKGYLGCQALSEMIQFYLEEVMPQAENQDPDIKAHVNSLGENLKTLRLRLRRCHRFLPCENKSKAVEQVKNAFNKLQEKGIYKAMSEFDIFINYIEAYMTMGGVSGWRLFKKIS | 4.37e-10 |  |  | 
6 | ORK10-003-HiBit E50A (ligand) MTQSENSCTHFPGNLPNMLRDLRDAFSRVKTFFQMKDQLDNLLLKESLLEDFKGYLGCQALSEMIQFYLEEVMPQAENQDPDIKAHVNSLGENLKTLRLRLRRCHRFLPCENKSKAVEQVKNAFNKLQEKGIYKAMSEFDIFINYIEAYLYKTITPEFANMLRDLRDAFSRVKTFFQMKDQLDNLLLKASLLEDFKGYLGCQALSEMIQFYLEEVMPQAENQDPDIKAHVNSLGENLKTLRLRLRRCHRFLPCENKSKAVEQVKNAFNKLQEKGIYKAMSEFDIFINYIEAYMTMGGVSGWRLFKKIS | 5.43e-11 |  |  | 
7 | CSF1 (wild-type human CSF1) (ligand) EEVSEYCSHMIGSGHLQSLQRLIDSQMETSCQITFEFVDQEQLKDPVCYLKKAFLLVQDIMEDTMRFRDNTPNAIAIVQLQELSLRLKSCFTKDYEEHDKACVRTFYETPLQLLEKVKNVFNETKNLLDKDWNIFSKNCNNSFAECSSQD |  | 1.88e-09 | 5.58e-09 | CSF1 EC-50, HEK293 CSF1R/SRE reporter (CSF1 receptor (CSF1R)): 7.34e-10; EC-50, HEK293 CSF1R/SRE reporter, biological replica 1 (CSF1 receptor (CSF1R)): 4.52e-10; EC-50, HEK293 CSF1R/SRE reporter, biological replica 2 (CSF1 receptor (CSF1R)): 3.37e-10; Max activation value, HEK293 CSF1R/SRE reporter, biological replica 1 (CSF1 receptor (CSF1R)): 8.49; Max activation value, HEK293 CSF1R/SRE reporter, biological replica 2 (CSF1 receptor (CSF1R)): 1.14
8 | CSF1 Q81F (ligand) EEVSEYCSHMIGSGHLQSLQRLIDSQMETSCQITFEFVDQEQLKDPVCYLKKAFLLVQDIMEDTMRFRDNTPNAIAIVQLFELSLRLKSCFTKDYEEHDKACVRTFYETPLQLLEKVKNVFNETKNLLDKDWNIFSKNCNNSFAECSSQD |  | 1.08e-08 | 6.77e-08 | 
9 | CSF1 Q79L (ligand) EEVSEYCSHMIGSGHLQSLQRLIDSQMETSCQITFEFVDQEQLKDPVCYLKKAFLLVQDIMEDTMRFRDNTPNAIAIVLLQELSLRLKSCFTKDYEEHDKACVRTFYETPLQLLEKVKNVFNETKNLLDKDWNIFSKNCNNSFAECSSQD |  | 6.76e-09 | 1.28e-08 | 
10 | CSF1 V117I (ligand) EEVSEYCSHMIGSGHLQSLQRLIDSQMETSCQITFEFVDQEQLKDPVCYLKKAFLLVQDIMEDTMRFRDNTPNAIAIVQLQELSLRLKSCFTKDYEEHDKACVRTFYETPLQLLEKIKNVFNETKNLLDKDWNIFSKNCNNSFAECSSQD |  |  |  | EC-50, HEK293 CSF1R/SRE reporter, biological replica 1 (CSF1 receptor (CSF1R)): 1e-09; EC-50, HEK293 CSF1R/SRE reporter, biological replica 2 (CSF1 receptor (CSF1R)): 4.37e-10; Max activation value, HEK293 CSF1R/SRE reporter, biological replica 1 (CSF1 receptor (CSF1R)): 7.64; Max activation value, HEK293 CSF1R/SRE reporter, biological replica 2 (CSF1 receptor (CSF1R)): 1.28
11 | CSF1 H9F (ligand) EEVSEYCSFMIGSGHLQSLQRLIDSQMETSCQITFEFVDQEQLKDPVCYLKKAFLLVQDIMEDTMRFRDNTPNAIAIVQLQELSLRLKSCFTKDYEEHDKACVRTFYETPLQLLEKVKNVFNETKNLLDKDWNIFSKNCNNSFAECSSQD |  | 2.66e-09 | 1.18e-08 | 
12 | CSF1 V120I (ligand) EEVSEYCSHMIGSGHLQSLQRLIDSQMETSCQITFEFVDQEQLKDPVCYLKKAFLLVQDIMEDTMRFRDNTPNAIAIVQLQELSLRLKSCFTKDYEEHDKACVRTFYETPLQLLEKVKNIFNETKNLLDKDWNIFSKNCNNSFAECSSQD |  |  |  | EC-50, HEK293 CSF1R/SRE reporter, biological replica 1 (CSF1 receptor (CSF1R)): 8.8e-10; EC-50, HEK293 CSF1R/SRE reporter, biological replica 2 (CSF1 receptor (CSF1R)): 4.43e-10; Max activation value, HEK293 CSF1R/SRE reporter, biological replica 1 (CSF1 receptor (CSF1R)): 8.86; Max activation value, HEK293 CSF1R/SRE reporter, biological replica 2 (CSF1 receptor (CSF1R)): 1.37
13 | CSF1 Q17R (ligand) EEVSEYCSHMIGSGHLRSLQRLIDSQMETSCQITFEFVDQEQLKDPVCYLKKAFLLVQDIMEDTMRFRDNTPNAIAIVQLQELSLRLKSCFTKDYEEHDKACVRTFYETPLQLLEKVKNVFNETKNLLDKDWNIFSKNCNNSFAECSSQD |  | 2.7e-09 | 7.94e-09 | 
14 | CSF1 A76I, V117L (ligand) EEVSEYCSHMIGSGHLQSLQRLIDSQMETSCQITFEFVDQEQLKDPVCYLKKAFLLVQDIMEDTMRFRDNTPNAIIIVQLQELSLRLKSCFTKDYEEHDKACVRTFYETPLQLLEKLKNVFNETKNLLDKDWNIFSKNCNNSFAECSSQD |  |  |  | EC-50, HEK293 CSF1R/SRE reporter, biological replica 1 (CSF1 receptor (CSF1R)): 1.18e-09; EC-50, HEK293 CSF1R/SRE reporter, biological replica 2 (CSF1 receptor (CSF1R)): 5.97e-10; Max activation value, HEK293 CSF1R/SRE reporter, biological replica 1 (CSF1 receptor (CSF1R)): 8.55; Max activation value, HEK293 CSF1R/SRE reporter, biological replica 2 (CSF1 receptor (CSF1R)): 1.14
15 | CSF1 S18Q (ligand) EEVSEYCSHMIGSGHLQQLQRLIDSQMETSCQITFEFVDQEQLKDPVCYLKKAFLLVQDIMEDTMRFRDNTPNAIAIVQLQELSLRLKSCFTKDYEEHDKACVRTFYETPLQLLEKVKNVFNETKNLLDKDWNIFSKNCNNSFAECSSQD |  | 2.51e-09 | 1.99e-08 | 
16 | CSF1 E82K (ligand) EEVSEYCSHMIGSGHLQSLQRLIDSQMETSCQITFEFVDQEQLKDPVCYLKKAFLLVQDIMEDTMRFRDNTPNAIAIVQLQKLSLRLKSCFTKDYEEHDKACVRTFYETPLQLLEKVKNVFNETKNLLDKDWNIFSKNCNNSFAECSSQD |  | 1.27e-08 | 2.49e-08 | 
17 | CSF1 V78W (ligand) EEVSEYCSHMIGSGHLQSLQRLIDSQMETSCQITFEFVDQEQLKDPVCYLKKAFLLVQDIMEDTMRFRDNTPNAIAIWQLQELSLRLKSCFTKDYEEHDKACVRTFYETPLQLLEKVKNVFNETKNLLDKDWNIFSKNCNNSFAECSSQD |  | 6.23e-09 | 2.1e-08 | 
18 | CSF1 (1-190) HiBiT (ligand) EEVSEYCSHMIGSGHLQSLQRLIDSQMETSCQITFEFVDQEQLKDPVCYLKKAFLLVQDIMEDTMRFRDNTPNAIAIVQLQELSLRLKSCFTKDYEEHDKACVRTFYETPLQLLEKVKNVFNETKNLLDKDWNIFSKNCNNSFAECSSQDGGVSGWRLFKKIS |  |  |  | EC-50, HEK293 CSF1R/SRE reporter (CSF1 receptor (CSF1R)): 1.45e-09
